Data as given in the DeepSol protein solubility set.

Assay: soluble on expression in E. coli; label from the status in PepcDB or PDB records

Sequence	soluble on expression in E. coli
MRLDLENLVETPSNEIAGFYEGLVEALPSLEGHYCSPGCRGGFLMRVREGTMMGHIVEHVALELQELAGMHVGFGRTRETATPGVYQVVIEYINEEAGRYAGRAAVRLCQSIVDRGRYPKAELEQDIQDLKDFSREASLGPSTEAIIKEAEKRGIPWMPLAARFLIQLGYGVNQKRMQATMTDNTGILGVELACDKEATKRILAANGVPVPRGTVINFLDDLEESIEYVGGYPIVIKPLDGNHGRGITIDIRSWDEAEAAYEAARQVSRSIIVERYYVGRDHRVLVVDGKVVAVAERVPAHVIGNGRSSIAELITETNQDPNRGEGHDNVLTKIELDRTSYQLLERQGYTLNSVPPKGTICYLRATANLSTGGSAVDRTDEIHPENVWLAQRVVRIIGLDIAGLDIVTTDISRPLRDVDGVIVEVNAAPGFRMHVAPSQGIPRNVAGAVMDMLFPNEKPSRIPILTVTGTNGKTTTTRLLAHIYRQTKKVVGYTTTDGTYIGDYLVEAGDNTGPQSAHVILQDPTVEVAVLESARGGILRSGLGFESANVGVVLNVAADHLGIGDIDTIEQLANLKSVVAEAVFPDGYAVLNADDHRVAAMSEKTKANIAYFTMNPDSDLVRKHIQKGGVAAVYENGYLSIVKGDWTHRIERAENIPLTMGGKAPFMIANALAASLAAFVQNVTIEQIRPGLRTFRASVSQTPGRMNLFNLGKYHALVDYAHNPASYEALGSFVRNWTTGQRIGVIGGPGDRRDEDFVTLGKLSADIFDYILVKEDDDTRGRLRGSASDLIIQGITQVKPNSRFESILDETQAINKALDMAPDGSLVVILPESVNRAIKLIKVRGVQEEIQPQNSTTTINDSQNGVAPSSVVNTLL	not soluble
MAELYDGPIVDAHHHFWDPQANYHPWLAEDAKIPFRYGDYSAIKRRYLPADYFGDVGAHRVVETVYVETEWDPRDPLGETRFVHHLAERHGAPHAVVAQAWLDAPDAAEVLAAQAGFARVRSVRHKPGGPQRPQQVGELRSLMSDERWRRGYAELARHGLHFDLQTPWWNLAEAACLARDFPDTLIVLNHAGLPSDRSEEGLAAWQRAMARFAECPNVALKISGIGQAGRRWSVEDNAWIVRESIALFGVERAMFASNFPVDSLCGSFDDIYGGFKRIVADLPYADQERLFHSNARRIYRTVPDTVRLQQASPDPRTSP	not soluble
MASSGDYDEIIKSISDAPPTHYMVKIESFSLLTKHAIERYETESFEAGGYKWKLVLYPNGNKSKNTKDHVSVYLSLADSSSLSPGWEVYAVFRLYLLDQNKDNYLILQGNERRFHSVKREWGFDKFIPTGTFSDASNGYLMEDTCMFGADVFVSKERRSGRGECLSMIKDATSSKHVWKIENFSKLDKESYDSNAFFAGDRKWKIEFYPTGTKQGTGTHLSIYLTLVDPETISDGTKIFVEFTIRIFDQLQGRHIAGKVTKWFSRSSSEHGWVKYVSMVYFTQPNSGLLLKDVCLVEADVCVHGITSAI	soluble
MGSDKIHHHHHHMKILVYGINYSPELTGIGKYTGEMVEWLAAQGHEVRVITAPPYYPQWQVGENYSAWRYKREEGAATVWRCPLYVPKQPSTLKRLLHLGSFAVSSFFPLMAQRRWKPDRIIGVVPTLFCAPGMRLLAKLSGARTVLHIQDYEVDAMLGLGLAGKGKGGKVAQLATAFERSGLHNVDNVSTISRSMMNKAIEKGVAAENVIFFPNWSEIARFQHVADADVDALRNQLDLPDNKKIILYSGNIGEKQGLENVIEAADRLRDEPLIFAIVGQGGGKARLEKMAQQRGLRNMQFFPLQSYDALPALLKMGDCHLVVQKRGAADAVLPSKLTNILAVGGNAVITAEAYTELGQLCETFPGIAVCVEPESVEALVAGIRQALLLPKHNTVAREYAERTLDKENVLRQFINDIRG	not soluble
MEDVFKGIEKEIIKIYKIPERKGRFSNFKFKNKEINELIDALGFKLYLHQVKALKYLYNKKDVVVTTSTASGKSEIFRLAIFDNFLSNPDDRYLLIYPTRALINNQYEKFSMENELFYKITNKRVKAEILTGDVGLEKRREILKDKPNVLFTTPDMLHYQILKNHNNYLWLLKNLKLLVVDELHVYRGVFGTNMVYVFKRLLKLLKRLNNNLQILCLSATLKNPKEFVKLLFNRDFEVVD	not soluble
MNNLYRDLAPVTEAAWAEIELEAARTFKRHIAGRRVVDVSDPGGPVTAAVSTGRLIDVKAPTNGVIAHLRASKPLVRLRVPFTLSRNEIDDVERGSKDSDWEPVKEAAKKLAFVEDRTIFEGYSAASIEGIRSASSNPALTLPEDPREIPDVISQALSELRLAGVDGPYSVLLSADVYTKVSETSDHGYPIREHLNRLVDGDIIWAPAIDGAFVLTTRGGDFDLQLGTDVAIGYASHDTDTVRLYLQETLTFLCYTAEASVALSH	not soluble
VHVEDALTYLDQVKIRFGSDPATYNGFLEIMKEFKSQSIDTPGVIRRVSQLFHEHPDLIVGFNAFLP	soluble
MSLEDNERVDHLIKEGYEIIQNDEVFSFSTDALLLGYLTEVRKNDKVMDLCSGNGVIPLLLAAKSTQPIEGIEIQEQLVSMARRSFKLNDLNDRLTMHHMDLKDVYQTFQPAQYTLVTCNPPYFKMNQNHQHQKEAHKIARHEIMCNLKDCIEAARHLLKEGGRFIMVHRAERLMDVLTELRHGKIEPKALTLVYSKHDKPAQTIVVEGRKGGNQGLDIRNPLYIYNEDGSYSDEMKGVYYGEGHHHHHH	soluble
MEDEDVPVCWICNEELGNERFRACGCTGELENVHRSCLSTWLTISRNTACQICGVVYNTR	soluble
KESCKMFIGGLNWDTTEDNLREYFGKYGTVTDLKIMKDPATGRSRGFGFLSFEKPSSVDEVVKTQHILDGKVIDPKRAIPRDEQDKTGKIFVGGIGPDVRPKEFEEFFSQWGTIIDAQLMLDKDTGQSRGFGFVTYDSADAVDRVCQNKFIDFKDRKIEIKRAEPRH	soluble
GMLSNLESSIQSPKSGEYQCLAALNLYDSPECTSLATQAAVGRHLQVTSNQQGAAVEVCLCEDDYPGWLSLGDLGLLKPATVLYQAKSFSESEIKKLLPGAIAFTQKAMQQSNYYLWGGTVGPNYDCSGLMQAAFVSVGIWLPRDAYQQEAFTQAITIDELAPGDLVFFGTPVKATHVGLYLGDGCYIHSSGKAQGRDGIGIDILSEQGDVVSRSYYQQLRGAGRVVKSYKPQRH	soluble
GSMDYKDDDDKKTNWLKRIYRVRPCVKCKVAPRDWKVKNKHLRIFNMCKTCFNNSIDIGDDTYHGHVDWLMYADSKEISNT	soluble
MGSDKIHHHHHHMYDAVIIGGGPGGYVCAIKLAQLGKKVALVEKDALGGTCTNRGCIPTKAMLTVSHLMDEMKEKASKYGLKVSGVEYDVAAIMKHVQKSVMMSRKGIEYLLKKNGVEVFKGTAVVENKNTVVVQETGEKLEAKNLVLAHGSVPSVFSPFDIDGVWTSDDVFNLKEFPKSLVIVGGGVIGVEFATFFGSFGVDVTIVEIAEHILPYEDSDVAEEVKKALKRKGVKILEKTKISSLSKVDDGFEVALENGETLKAEKVLLAAGRKPNIPEDVKALGVKIEKGVVTDSRMRTNVENVYAIGDIRSGIMLAHVAMYEGIVAAKNIAGEEEEMDYSAVPSIIFSSPEVASVGVREKDVNPEEVVISKFPVSANGRARTMLENIGFAKVIADKKDGTVLGMSIVSPSATDMIMEGVIAVKFRMKAEDLEKAIHPHPTLTETILGALEGVSGKPIHL	not soluble
MKLQSYLMGEWREGQGEGVPVRDASTGEVLARVTAEGLPVKEAVAWGREVGGKALLALGFQERGRRLRALAQYLSERKEALYRLYATTGGTRRDAWYDVDGGIGVLYAYSSLARNLPEGNLLPEDDFLPLSKDLSFQGRHVLAPKGGITVQINAFNFPVWGLLEKFAPAFLAGVPTLAKPATPTAHVAEALVRTMLESGLLPEGSLQLLVGSVGDLFDALDHRDSVFFTGSKATADRLRRHPAFLERGALFNAEADSLNPAILGEKATEEELSRLAQEIAQELVIKTGQRCTAIRRVFAPRERLKALLEATRKRLEALRLGDPREEGVDLGPLASLEQKAEVEKAVAALLEAGARVYWRHPGREDGAFFPPTLLLAEDPWPGALHQVEPFGPVATFFPYGSREEAARLAALGGGSLVATLATSDPEEARFYLLALAPYVGRLHLLNARTAASSTGHGSPLPRLLHGGPGRAGGGEELGGLLSVRRHLGRVALQADPWLLSALTGEYAKGAEKPAEVHPFRKAYEDLEVGETLTTHRRTVTEADIALFSALSWDHFYAHTDEIAARESLFGKRVAHGYFVLSAAAGLFVDPAPGPVLANYGLEGLRFLEPVGAGDTLQVRLTVKRKRPRDEKTGVVEWAAEVVNQEGKPVATYTVLTLVARKGALAKGS	soluble
MSGELRVRRASSWELDLILKEAEKYGELLHEFFCVVEGKYRDVYAVNEEVWKIIEDINMRPYSLGTFVGTIRVDENLVEKFYPNLEFFSLIKLEKNYVILGPKASFLFTTGKDAPKEAVREIKWQGSKRVVVLNDLGDIIGIGLINPKSDRRFIKNLKDVGEFLRR	soluble
NEFELGTRGSSRVDLQEQRSVKTRVSLDDLFEQIKQGEMKELNLIVKADVQGSVEALVAALQKIDVEGVRVKIIHAAVGAITESDISLATASNAIVIGFNVRPDANAKRAAESEKVDIRLHRIIYNVIEEIEAAM	soluble
MPEIIGKLLKSDGKVVSEIEKQVSQALIDLETNDDVQSQLKELYIVGVKEVELGNKSAIIIYVPVPQLKAFHKIHPALVRELEKKFGGRDILILAKRRILPKPQRGSKARPQKQKRPRSRTLTAVHDAWLDELVYPAEVVGRRIRVKLDGKKVYKVHLDKSHQTNVGHKIGVFASVYRKLTGKDVTFEFPDPIF	not soluble
MIQIEQIRTGVIQENCYLVYNEEALLIIDPGAEGAKLIQEITRLGKKPAAILLTHTHYDHIGAVEELRHHYQIPVYVSPLEQAWLSNPILNLSGLGRHDDIANIIVQPAEHEFKLTDYEIGGMKFSVVPTPGHSIGSVSFVFDDFVVVGDALFKGSIGRTDLHTGDMQQLLHSITTYLFTLPEEFPVYPGHGDATTIQHEKATNPFFN	not soluble
MRKYEQKQLRNHDILTQHYEEVYRQLPEFKSLDDSISILSVQYGKRLLNGDQKAISSLKEELAILRASKQELLRSSGFPADYLEPVYDCPNCKDTGYIGNQKCHCFKKAIIDLLYEQSNLKEILKKENFSNFALDYYSTNFIDPKTGRSSRQVIEDALRICRNFVTSFGTDFQNLFLYGDVGVGKTFLSNCIAKELMDKEYSVLYFSASKFFSSLAKHAFDKQDVDAQNMFELIYNCDCLIIDDLGTEYTNNFIASQFFTCINERLLNSRSTIISTNLSLDTLADLYTERSFSRITSNYIMLKLIGDDIRIKKKLKNREEN	not soluble
MGSDKIHHHHHHMKVSGGEVPPFFKEGFFFTSEELTHLINVCSSTSAIISVLKDSKYRRSLVLYLKRPLSKDALLLIQTLLTTLEREDLSFGVKELEYMAYHDPLTGLPNRRYFFELGNRYLDLAKREGKKVFVLFVDLAGFKAINDTYGHLSGDEVLKTVSKRILDRVRRSDVVARYGGDEFTILLYDMKEEYLKSLLERILSTFREPVRVENKHLSVTPNIGVARFPEDGENLEELLKVADMRMYKAKEMKVPYFSLS	not soluble
MGSDKIHHHHHHMELYAASYILPIASPPIPGGAVAVHDGCIVETGTLAELRSRHSGPVHDFPGCAILPGLVNAHTHLELTHFPSWKIRKGIDYSPRTYVDWIIQVIKIRRALSPQELELSVREGLRICLEAGTTAIGEILTDRSLIPLYADSGLRGRLLFEAIGHDPVRNAQLVEELDAAIASFSGGSFLPGISPHAPHTVAEHLHQDVYRLAYERNVPRVIHLAESREESDFFFDSSGKIAEFLYPHVRWESYLPAPRRTTATAWLDGLGVLNGTISAVHCVHLTPSDAEILAKRGVGVVLCPRSNDKLAVGRAPVVLLKRLGVPLALGTDSLASNDSLSLWDEMRYLLDTFPGIFTPTEALSMTTIGSARQLALADRTGSLDKGKHADFLVMKLPGRNGSGEALHEALIHSGEILQVFLAGNLVVSREAFS	not soluble
